Consider one molecule from patent US20110311551A1 (INSERM, published 2011).

Test [1] addresses T1, E1 region 297-306, RHWTTQGCNC (Hepatitis C virus).
T1 construct: Region found with overlapping octapeptides; also called E1 297-306
T1 peptide: RHWTTQGCNC
The experiment in a line: overlapping octapeptides.

The target of test [2] is T2, E2 region 613-621, YRLWHYPCT (Hepatitis C virus).
T2 construct: Region found with overlapping octapeptides; also called E2 613-621
T2 peptide: YRLWHYPCT
The experiment in a line: overlapping octapeptides.

The target in test [3] is T3, E2 octapeptide 479-486, GPDQRPYC (Hepatitis C virus).
T3 peptide: GPDQRPYC
Nature of the test: octapeptides.

For test [4], the target named is T4, E2 octapeptide 487-494, WHYPPKPC (Hepatitis C virus).
T4 peptide: WHYPPKPC
The experiment in a line: octapeptides.

In test [5] the target is T5, peptides corresponding to the 347-356 E1 region (Hepatitis C virus).
T5 construct: 347-356 was counted over to 5-14 on that entry; Made as overlapping pentadecapeptides on a membrane; also called E1 347-356
The experiment in a line: overlapping synthetic pentadecapeptides on a membrane, colorimetric immunoassay.

Test [6] addresses T6, peptides corresponding to the E2 region 686-697 (Hepatitis C virus).
T6 construct: 686-697 was counted over to 2-13 on that entry; also called E2 686-697
T6 peptide: STGLIHLHQNIV
The test is described as above.

Test [7] has as its target T7, peptides corresponding to the E2 region 612-626 (Hepatitis C virus).
T7 construct: 612-626 was counted over to 3-17 on that entry; also called E2 612-626
T7 peptide: PYRLWHYPCTINYTI
The description is as above.

For test [8], the target named is T8, human serum albumin (human, UniProt P02768 25-609).
T8 construct: also called HSA
The experiment in a line: EIA.

Test [9] deals with T9, E2 region 480-494, PDQRPYCWHYPPKPC (Hepatitis C virus).
T9 construct: also called E2 480-494; regions 480-494 of E2 as pentadecapeptide
T9 peptide: PDQRPYCWHYPPKPC
The experiment in a line: ELISA with pentadecapeptides. (ELISA stands for enzyme-linked immunosorbent assay.)

T8 sequence (P02768 25-609 limits assumed): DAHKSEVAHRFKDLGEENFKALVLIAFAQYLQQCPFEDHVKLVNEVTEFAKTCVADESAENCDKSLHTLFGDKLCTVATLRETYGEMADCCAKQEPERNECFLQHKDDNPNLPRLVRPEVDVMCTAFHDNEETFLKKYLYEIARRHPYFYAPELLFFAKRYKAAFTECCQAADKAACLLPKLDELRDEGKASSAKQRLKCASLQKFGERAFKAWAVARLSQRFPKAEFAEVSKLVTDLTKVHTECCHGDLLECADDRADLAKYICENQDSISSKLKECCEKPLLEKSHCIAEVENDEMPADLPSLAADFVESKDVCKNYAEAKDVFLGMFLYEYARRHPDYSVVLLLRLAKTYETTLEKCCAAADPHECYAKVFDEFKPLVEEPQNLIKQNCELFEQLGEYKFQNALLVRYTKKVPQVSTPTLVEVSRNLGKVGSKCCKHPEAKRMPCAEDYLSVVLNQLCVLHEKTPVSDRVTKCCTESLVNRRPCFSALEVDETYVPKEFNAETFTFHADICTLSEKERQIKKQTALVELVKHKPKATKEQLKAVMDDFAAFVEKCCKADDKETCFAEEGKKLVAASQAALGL

B1: monoclonal antibody D32.10 (antibody, V domains shown)
VH: EVQLQQSGAELVKPGASVKLSCTPSGFNIKDTYIHWVKQRPEQGLEWIGMINPANGNSNYDPKFQDKATITADTSSNTAYLQLSSLTSEDTAVYYCAEITTDFDVWGAGTTVTVSS
VL: NIVLTQSPPSLAVSLGQRATISCRASESVDSYGNSFLHWYQQKSGQPPKLLIYLASNLESGVPARFSGSGSRTDFTLTIDPLEADDAATYYCQQNNEAPFTFGSGTKLEIKR
notes: also called mAb D32.10; MAb D32.10
Turning to B1, the binding result in [1] is reported as “binds”; in test [2], “binds”; in test [3], “binds”; in test [4], “binds”; in test [5], “no binding”; in [6], “no binding”. In addition, the binding result in test [7] is “binds”; in [8], “no binding”; in [9] it was “binds”.
